Where no end group is shown, it is not given here. The star is where a group is joined. Palmitoyl = CCCCCCCCCCCCCCCC(=O)*
Assay: Compound gel-forming ability in water (visual inspection, tube tapping assay, tilted tube assay);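 note: peptides mixed with de-ionized water at about 22-25 °C, judged after 20 min by eye plus tube tapping (10 taps, moves counted) and 90° tilt mobility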
Type: physicochemical
Settings: for gel formation at 11% w/w: 11% w/w in water; for gel formation at 20% w/w: 20% w/w in water; for gel formation at 3% w/w: 3% w/w in water; for gel formation in aqueous solution, 3% / propensity to form gels, chimeric or mutated polypeptides, 3%: 3% w/w; for propensity to form gels, chimeric or mutated polypeptides, 3% / propensity to form gels, chimeric or mutated polypeptides, 6% / propensity to form gels, chimeric or mutated polypeptides, 11% / propensity to form gels, chimeric or mutated polypeptides, 20%: Table 5; for gel formation at 6% w/w: 6% w/w in water; for gel formation in aqueous solution, 6% / propensity to form gels, chimeric or mutated polypeptides, 6%: 6% w/w; for gel formation in aqueous solution, 11% / propensity to form gels, chimeric or mutated polypeptides, 11%: 11% w/w; for gel formation in aqueous solution, 20% / propensity to form gels, chimeric or mutated polypeptides, 20%: 20% w/w; for Physical property at 11% w/w: 11% w/w in aqueous solution, room temperature

Substance	gel formation at 11% w/w	gel formation in aqueous solution, 6% (Table 3)	gel formation in aqueous solution, 11% (Table 3)	propensity to form gels, chimeric or mutated polypeptides, 11%	further results
Pal-KVQKLSAPVDPSSPHSY-miniPEG-Sar-RVYVHPA-NH2 [SEQ ID NO:216]	liquid gel				gel formation at 20% w/w: liquid gel
Pal-KVQKLSAPVDPSSPHSY-miniPEG-Y-(D-Ala)-GF(D-Leu)-NH2 [SEQ ID NO:212]					gel formation at 3% w/w: semisolid gels; gel formation in aqueous solution, 3% (Table 3): SS (SS for semisolid gel); propensity to form gels, chimeric or mutated polypeptides, 3%: SS (An ability to form semisolid gel is represented by an SS)
Pal-KVQKLSAPVDPSSPHSY-miniPEG-Y-(D-Met)-FHLMD-NH2 [SEQ ID NO:210]	semisolid gel	SS (SS for semisolid gel)	SS (SS for semisolid gel)	SS (An ability to form semisolid gel is represented by an SS)	gel formation at 6% w/w: semisolid or liquid gel; propensity to form gels, chimeric or mutated polypeptides, 6%: SS (An ability to form semisolid gel is represented by an SS)
Pal-KVQKLSAPVDPSSPHSY-miniPEG-YNWNSFGLRF-NH2 [SEQ ID NO:208]					gel formation in aqueous solution, 20% (Table 3): SS (SS for semisolid gel); propensity to form gels, chimeric or mutated polypeptides, 20%: SS (An ability to form semisolid gel is represented by an SS)
Pal-KVQNLSAPVDPSSPHSY-NH2 [SEQ ID NO:104]					Physical property at 11% w/w (Table 2): AS/IS (AS/IS for aqueous solution or insoluble)
Pal-QKLAHQIYQFTDKDVAPRSKISPQGY-NH2 (Palmitoyl-QKLAHQIYQFTDKDVAPRSKISPQGY-NH2; SMILES CCCCCCCCCCCCCCCC(=O)N[C@@H](CCC(N)=O)C(=O)N[C@@H](CCCCN)C(=O)N[C@@H](CC(C)C)C(=O)N[C@@H](C)C(=O)N[C@@H](Cc1c[nH]cn1)C(=O)N[C@@H](CCC(N)=O)C(=O)N[C@H](C(=O)N[C@@H](Cc1ccc(O)cc1)C(=O)N[C@@H](CCC(N)=O)C(=O)N[C@@H](Cc1ccccc1)C(=O)N[C@H](C(=O)N[C@@H](CC(=O)O)C(=O)N[C@@H](CCCCN)C(=O)N[C@@H](CC(=O)O)C(=O)N[C@H](C(=O)N[C@@H](C)C(=O)N1CCC[C@H]1C(=O)N[C@@H](CCCNC(=N)N)C(=O)N[C@@H](CO)C(=O)N[C@@H](CCCCN)C(=O)N[C@H](C(=O)N[C@@H](CO)C(=O)N1CCC[C@H]1C(=O)N[C@@H](CCC(N)=O)C(=O)NCC(=O)N[C@@H](Cc1ccc(O)cc1)C(N)=O)[C@@H](C)CC)C(C)C)[C@@H](C)O)[C@@H](C)CC) [SEQ ID NO:103]					Physical property at 11% w/w (Table 2): AS/IS (AS/IS for aqueous solution or insoluble)
Pal-RQSMNNFQGLRSFGCRFGTCTVQKLAHQIYQFTDKDKDNVAPRSKISPQGY-NH2 [SEQ ID NO:274]	semisolid gel	SS (SS for semisolid gel)	SS (SS for semisolid gel)	SS (An ability to form semisolid gel is represented by an SS)	gel formation at 6% w/w: semisolid gel; gel formation at 20% w/w: semisolid gel; Physical property at 11% w/w (Table 1): SS (SS for semisolid gel); gel formation in aqueous solution, 20% (Table 3): SS (SS for semisolid gel); propensity to form gels, chimeric or mutated polypeptides, 6%: SS (An ability to form semisolid gel is represented by an SS); propensity to form gels, chimeric or mutated polypeptides, 20%: SS (An ability to form semisolid gel is represented by an SS)
Pal-SDAAVDTSSEITTKDLKEKKEVVEEAEN-NH2 [SEQ ID NO:268]	semisolid gel		SS (SS for semisolid gel)	SS (An ability to form semisolid gel is represented by an SS)	
Pal-SSPHSY-NH2 [SEQ ID NO:119]					Physical property at 11% w/w (Table 2): SS (SS for semisolid gel)
Pal-SSPHSY-miniPEG -SYS-Nle-EH-(D-Phe)-RWGKPV-NH2 [SEQ ID NO:223]					gel formation in aqueous solution, 20% (Table 3): SS (SS for semisolid gel)
Pal-SSPHSY-miniPEG-(D-Ala)-(D-(β-naphthyl))-AAW-(D-Phe)-Lys-NH2 [SEQ ID NO:235]	semisolid gel	SS (SS for semisolid gel)	SS (SS for semisolid gel)	SS (An ability to form semisolid gel is represented by an SS)	gel formation at 3% w/w: semisolid gel; gel formation at 6% w/w: semisolid gel; gel formation in aqueous solution, 3% (Table 3): SS (SS for semisolid gel); propensity to form gels, chimeric or mutated polypeptides, 3%: SS (An ability to form semisolid gel is represented by an SS); propensity to form gels, chimeric or mutated polypeptides, 6%: SS (An ability to form semisolid gel is represented by an SS)
Pal-SSPHSY-miniPEG-(D-Arg)-Arg-Pro-Hyp-Gly-Thi-Ser-(D-Tic)-Oic-Arg [SEQ ID NO:233]			AS/IS (AS/IS for aqueous solution or insoluble)		gel formation at 30% w/w (30% w/w in water): semisolid gel; gel formation in aqueous solution, 30% (Table 3, 30% w/w): SS (SS for semisolid gel)
Pal-SSPHSY-miniPEG-EAYKAAEKAYAAKEAAKEAAKAKAEKKAAYAKAKAAKYEKKAKKAAAEYKKK ({Palmitoyl-Ser-Ser-Pro-H2N-Ser-Tyr-miniPEG}-EAYKAAEKAYAAKEAAKEAAKAKAEKKAAYAKAKAAKYEKKAKKAAAEYKKK) [SEQ ID NO:245]			AS/IS (AS/IS for aqueous solution or insoluble)	AS/IS	gel formation at 20% w/w: semisolid gel; gel formation in aqueous solution, 20% (Table 3): SS (SS for semisolid gel); propensity to form gels, chimeric or mutated polypeptides, 20%: SS (An ability to form semisolid gel is represented by an SS)
Pal-SSPHSY-miniPEG-FLPLIGRVLSGIL-NH2 ({Palmitoyl-Ser-Ser-Pro-H2N-Ser-Tyr-miniPEG}-FLPLIGRVLSGIL-NH2) [SEQ ID NO:243]	semisolid gel	AS/IS (AS/IS for aqueous solution or insoluble)	SS (SS for semisolid gel)		
Pal-SSPHSY-miniPEG-HGDGSFSDEMNTILDNLAARDFINWLIQTKITD-OH [SEQ ID NO:222]	semisolid gel		SS (SS for semisolid gel)	SS (An ability to form semisolid gel is represented by an SS)	gel formation at 6% w/w: liquid gel
Pal-SSPHSY-miniPEG-ICVVQDWGHHRCT-NH2 [SEQ ID NO:244]	semisolid gel	AS/IS (AS/IS for aqueous solution or insoluble)	SS (SS for semisolid gel)	SS (An ability to form semisolid gel is represented by an SS)	propensity to form gels, chimeric or mutated polypeptides, 6%: AS/IS
Pal-SSPHSY-miniPEG-KCNTATCATQRLANFLVHSSNNFGPILPPTNVGSNTY-NH2 ({Palmitoyl-Ser-Ser-Pro-H2N-Ser-Tyr-miniPEG}-KCNTATCATQRLANFLVHSSNNFGPILPPTNVGSNTY-NH2; ends and bridges not checked) [SEQ ID NO:218]	semisolid gel	SS (SS for semisolid gel)	SS (SS for semisolid gel)	SS (An ability to form semisolid gel is represented by an SS)	gel formation at 6% w/w: semisolid gel; propensity to form gels, chimeric or mutated polypeptides, 6%: SS (An ability to form semisolid gel is represented by an SS)

Reference: patent US20200405868A1, “GEL-FORMING POLYPEPTIDES” (priority 2018, published 2020)
